In doi:10.1101/2021.05.05.442822:

Target: H3K9me0 peptide
Experiment: FP
Settings: enzyme; modification not given

- Kd: 66 µM
B1: Full-length human G9a with an N-terminal MBP tag (MBP:FL-G9a), Q96KQ7 1-1210 (protein)
chain: AAAAGAAAAAAAEGEAPAEMGALLLEKETRGATERVHGSLGDTPRSEETLPKATPDSLEPAGPSSPASVTVTVGDEGADTPVGATPLIGDESENLEGDGDLRGGRILLGHATKSFPSSPSKGGSCPSRAKMSMTGAGKSPPSVQSLAMRLLSMPGAQGAAAAGSEPPPATTSPEGQPKVHRARKTMSKPGNGQPPVPEKRPPEIQHFRMSDDVHSLGKVTSDLAKRRKLNSGGGLSEELGSARRSGEVTLTKGDPGSLEEWETVVGDDFSLYYDSYSVDERVDSDSKSEVEALTEQLSEEEEEEEEEEEEEEEEEEEEEEEEDEESGNQSDRSGSSGRRKAKKKWRKDSPWVKPSRKRRKREPPRAKEPRGVNGVGSSGPSEYMEVPLGSLELPSEGTLSPNHAGVSNDTSSLETERGFEELPLCSCRMEAPKIDRISERAGHKCMATESVDGELSGCNAAILKRETMRPSSRVALMVLCETHRARMVKHHCCPGCGYFCTAGTFLECHPDFRVAHRFHKACVSQLNGMVFCPHCGEDASEAQEVTIPRGDGVTPPAGTAAPAPPPLSQDVPGRADTSQPSARMRGHGEPRRPPCDPLADTIDSSGPSLTLPNGGCLSAVGLPLGPGREALEKALVIQESERRKKLRFHPRQLYLSVKQGELQKVILMLLDNLDPNFQSDQQSKRTPLHAAAQKGSVEICHVLLQAGANINAVDKQQRTPLMEAVVNNHLEVARYMVQRGGCVYSKEEDGSTCLHHAAKIGNLEMVSLLLSTGQVDVNAQDSGGWTPIIWAAEHKHIEVIRMLLTRGADVTLTDNEENICLHWASFTGSAAIAEVLLNARCDLHAVNYHGDTPLHIAARESYHDCVLLFLSRGANPELRNKEGDTAWDLTPERSDVWFALQLNRKLRLGVGNRAIRTEKIICRDVARGYENVPIPCVNGVDGEPCPEDYKYISENCETSTMNIDRNITHLQHCTCVDDCSSSNCLCGQLSIRCWYDKDGRLLQEFNKIEPPLIFECNQACSCWRNCKNRVVQSGIKVRLQLYRTAKMGWGVRALQTIPQGTFICEYVGELISDAEADVREDDSYLFDLDNKDGEVYCIDARYYGNISRFINHLCDPNIIPVRVFMLHQDLRFPRIAFFSSRDIRTGEELGFDYGDRFWDIKSKYFTCQCGSEKCKHSAEAIALEQSRLARLDPHPELLPELGSLPPVNT
